Source: patent publication US20210292414A1 (H LUNDBECK A S, published 2021)
Residue numbers refer to the chain shown, from its start.

T1: Sortilin hSORTECDBAP (human, UniProt Q99523 78-755)
T1 sequence: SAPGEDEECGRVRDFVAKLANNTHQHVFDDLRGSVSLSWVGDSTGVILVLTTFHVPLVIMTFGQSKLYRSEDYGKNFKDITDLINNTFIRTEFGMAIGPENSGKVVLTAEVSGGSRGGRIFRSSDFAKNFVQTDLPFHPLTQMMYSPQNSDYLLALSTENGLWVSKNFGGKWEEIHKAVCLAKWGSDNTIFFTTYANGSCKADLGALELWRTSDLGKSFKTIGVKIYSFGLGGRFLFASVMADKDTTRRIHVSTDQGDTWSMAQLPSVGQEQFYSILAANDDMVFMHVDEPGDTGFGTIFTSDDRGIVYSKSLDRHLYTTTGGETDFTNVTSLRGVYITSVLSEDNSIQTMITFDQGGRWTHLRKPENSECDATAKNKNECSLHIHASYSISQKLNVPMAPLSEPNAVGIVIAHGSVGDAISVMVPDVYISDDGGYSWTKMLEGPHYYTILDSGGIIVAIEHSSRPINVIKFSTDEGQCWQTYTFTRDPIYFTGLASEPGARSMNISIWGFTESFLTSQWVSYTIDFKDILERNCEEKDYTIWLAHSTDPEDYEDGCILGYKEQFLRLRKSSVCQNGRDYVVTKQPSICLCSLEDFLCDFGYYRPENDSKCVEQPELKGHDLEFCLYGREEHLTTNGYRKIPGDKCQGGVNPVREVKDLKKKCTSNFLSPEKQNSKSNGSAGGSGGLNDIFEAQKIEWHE

T2: Sortilin SORTECDBAP_hB06-10 (human/tetraodon chimera)
T2 construct: Shuffle construct: chimeric human/tetraodon Sortilin ECD with BAP tag
T2 chain: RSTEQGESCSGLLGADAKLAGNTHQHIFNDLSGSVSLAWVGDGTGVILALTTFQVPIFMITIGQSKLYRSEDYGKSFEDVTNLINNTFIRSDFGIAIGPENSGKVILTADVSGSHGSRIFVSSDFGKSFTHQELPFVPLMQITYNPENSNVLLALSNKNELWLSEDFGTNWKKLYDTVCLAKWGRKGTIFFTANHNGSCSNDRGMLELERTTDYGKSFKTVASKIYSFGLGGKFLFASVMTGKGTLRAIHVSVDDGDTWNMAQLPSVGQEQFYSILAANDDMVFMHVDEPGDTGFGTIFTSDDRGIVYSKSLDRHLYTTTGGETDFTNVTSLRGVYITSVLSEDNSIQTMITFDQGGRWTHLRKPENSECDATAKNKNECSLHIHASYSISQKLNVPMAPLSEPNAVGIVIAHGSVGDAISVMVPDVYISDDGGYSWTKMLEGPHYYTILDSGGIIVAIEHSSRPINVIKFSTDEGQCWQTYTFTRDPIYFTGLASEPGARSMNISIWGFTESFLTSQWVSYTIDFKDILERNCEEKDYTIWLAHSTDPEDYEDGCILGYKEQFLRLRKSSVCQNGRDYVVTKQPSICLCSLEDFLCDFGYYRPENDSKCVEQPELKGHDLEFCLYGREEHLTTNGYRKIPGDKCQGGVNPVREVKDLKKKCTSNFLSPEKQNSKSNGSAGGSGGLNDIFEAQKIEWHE

T3: Sortilin SORTECDBAP_tetra (tetraodon)
T3 construct: Fully tetraodon Sortilin ECD with BAP tag; also called tetraodon; tetraodon Sortilin
T3 chain: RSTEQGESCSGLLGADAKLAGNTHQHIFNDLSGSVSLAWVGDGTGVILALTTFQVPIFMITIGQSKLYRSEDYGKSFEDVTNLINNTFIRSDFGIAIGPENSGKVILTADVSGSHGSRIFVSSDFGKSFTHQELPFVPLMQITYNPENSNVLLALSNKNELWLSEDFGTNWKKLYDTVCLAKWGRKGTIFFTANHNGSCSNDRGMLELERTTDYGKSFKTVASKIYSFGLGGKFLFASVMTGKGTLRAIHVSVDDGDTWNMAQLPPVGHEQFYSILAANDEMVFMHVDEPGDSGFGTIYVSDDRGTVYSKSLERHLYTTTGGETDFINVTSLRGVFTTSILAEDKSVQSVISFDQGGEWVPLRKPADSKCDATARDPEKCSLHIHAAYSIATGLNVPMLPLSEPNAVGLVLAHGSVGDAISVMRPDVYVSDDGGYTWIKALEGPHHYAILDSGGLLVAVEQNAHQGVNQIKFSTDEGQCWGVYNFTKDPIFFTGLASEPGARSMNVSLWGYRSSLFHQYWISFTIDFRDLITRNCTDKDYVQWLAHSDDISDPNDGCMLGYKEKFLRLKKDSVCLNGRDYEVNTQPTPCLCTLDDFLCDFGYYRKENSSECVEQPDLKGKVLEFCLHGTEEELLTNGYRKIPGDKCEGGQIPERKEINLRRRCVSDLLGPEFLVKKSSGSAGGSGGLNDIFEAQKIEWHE

T4: Sortilin SORTECDBAP_hB12390 (human/tetraodon chimera)
T4 construct: Shuffle construct: chimeric human/tetraodon Sortilin ECD with BAP tag
T4 chain: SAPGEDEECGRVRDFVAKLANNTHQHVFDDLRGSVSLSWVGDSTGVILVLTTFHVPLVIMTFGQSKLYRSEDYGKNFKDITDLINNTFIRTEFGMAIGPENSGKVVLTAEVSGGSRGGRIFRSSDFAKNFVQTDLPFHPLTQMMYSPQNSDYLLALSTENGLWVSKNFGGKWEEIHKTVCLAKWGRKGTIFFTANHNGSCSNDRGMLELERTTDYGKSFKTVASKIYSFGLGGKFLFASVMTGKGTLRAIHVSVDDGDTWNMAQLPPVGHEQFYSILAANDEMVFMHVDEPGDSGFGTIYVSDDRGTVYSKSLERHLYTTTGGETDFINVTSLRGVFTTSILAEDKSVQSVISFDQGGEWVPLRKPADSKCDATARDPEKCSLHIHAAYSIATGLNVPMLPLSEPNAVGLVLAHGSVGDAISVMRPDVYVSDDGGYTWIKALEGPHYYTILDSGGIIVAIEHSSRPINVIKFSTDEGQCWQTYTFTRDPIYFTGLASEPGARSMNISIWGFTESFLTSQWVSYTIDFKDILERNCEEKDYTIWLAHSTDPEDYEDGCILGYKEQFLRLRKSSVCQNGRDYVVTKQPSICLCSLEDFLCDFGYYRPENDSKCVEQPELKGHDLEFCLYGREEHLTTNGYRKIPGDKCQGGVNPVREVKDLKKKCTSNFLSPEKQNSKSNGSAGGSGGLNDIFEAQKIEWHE

B1: Antibody 6003-030 (antibody, human IgG1, V domains shown)
VH: EVQVLESGGGLVQPGGSLRLSCAASGFTFSSYAMSWVRQAPGKGLEWVSTISGRGGNTYYADSVKGRFTISRDNSKNTLYLQMDSLRAEDTAVYYCAIIPSLYWYFDLWGRGTLVTVSS
VL: EIVLTQSPATLSLSPGERATLSCRASQSVSSYLAWYQQKPGQAPRLLIYDASNRATGIPARFSGSGSGTDFTLTISSLEPEDFAVYYCQQRSNWPLTFGGGTKVEIK
notes: Human antibody (HuMab); also called antibody 30; mAb30
B2: Antibody 6003-083 (antibody, human IgG1, V domains shown)
VH: B1 VH with V4L, N57S, D84N, I99V, P100A, S101T, L102M
VL: B1 VL with L96I, G100Q, K103R, V104L
B3: Antibody 6003-1286 (antibody, human IgG1, V domains shown)
VH: B1 VH with V4L, D84N, T91A, I98N, P100Y, L102H
VL: B1 VL with S30N
B4: Antibody 6003-028 (antibody, human IgG1, V domains shown)
VH: B1 VH with V4L, N57S, D84N, I98N, I99L, P100Y, L102N
VL: B1 VL with Y32F
B5: Antibody 6003-056 (antibody, human IgG1, V domains shown)
VH: B1 VH with A23V, S35H, T50A, N57S, D84N
VL: B1 VL with Y32F
B6: IgG1-6003-408 (antibody, V domains shown)
VH: EVQLVESGGGLVKPGGSLRLSCAASGFTFSSYSMNWVRQAPGKGLEWVSSISSSSSYIYYADSVKGRFTISRDNAKNSLYLQMNSLRAEDTAVYYCARRRIAAAGTGYGAFDIWGQGTMVTVSS
VL: ARQLTQSPSSLSASVGDRVTITCRASQGITSALAWYQQKPGKVPKLLIYDASSLESGVPSRFSGSGSGTDFTLTISSLQPEDFATYYCQQFNGYPMFSFGQGTKLEII
notes: also called Antibody 6003-408
B7: Antibody 6003-381 (antibody, human IgG1, V domains shown)
VH: QVQLVESGGGVVQPGRSLRLSCAASGFTFSNYVMHWVRQAPGKGLEWVAAISYNGNNKYYADSVKGRFTISRDNSKNTLYLQMNSLRAEDTAVSYCAKGLNDAFDIWGQGTMVTVSS
VL: not shown
B8: Antibody 6003-1277 (antibody, V domains shown)
VH: QVQLVQSGAEVKKPGASVKVSCKTSGYTFTHYGISWVRQAPGQGLEWMGWINTYNGNTKYAQKLQGRVTMTTDTSTSTAYMELRSLRSDDTAVYYCASLGRNFDYWGQGTLVTVSS
VL: not shown

Molecular target: T1, Sortilin hSORTECDBAP
Assay: BLI (Octet384RED)

EC50 [ng/mL] | Binder
0.89 | B1
0.77 | B2
1.02 | B3
1.75 | B4
1.26 | B5
1.93 | B6
1.82 | B7
3.03 | B8

Molecular target: T2, Sortilin SORTECDBAP_hB06-10
Assay: BLI (Octet384RED)

EC50 [ng/mL] | Binder
0.74 | B1
0.76 | B2
0.87 | B3
1.56 | B4
0.97 | B5
1.68 | B6
1.34 | B7
2.62 | B8

Molecular target: T3, Sortilin SORTECDBAP_tetra
Assay: BLI (Octet384RED)

binding result | Binder
no binding | B1
no binding | B2
no binding | B3
no binding | B4
no binding | B5
no binding | B6
no binding | B7
no binding | B8

Molecular target: T4, Sortilin SORTECDBAP_hB12390
Assay: BLI (Octet384RED)

EC50 [ng/mL] | Binder
0.82 | B1
0.86 | B2
0.86 | B3
1.86 | B4
1.42 | B5
2.21 | B6
1.93 | B7
3.63 | B8
